Series [1] concerns the target ASC PYD (M1-Q105, S106C), fluorophore-labelled, MBP removed by TEV (UniProt Q9ULZ3). Briefly: fluorescence polarisation; apparent; Alexa Fluor 488-labelled MBP-ASC PYD, same procedure, mCherry-NLRP6 PYD added as nucleator. For orientation: Polarisation of emitted light reports the rotation of a fluorescent probe.
Series [2] concerns the molecule itself. The experiment in a line: cryo-EM structure; helical reconstruction of His-GFP-AIM2 PYD filaments; sample in 20 mM HEPES pH 8.0, 150 mM NaCl, 2 mM dithiothreitol.
Series [3] concerns the target T1, ASC PYD (M1-Q105, S106C), fluorophore-labelled, MBP removed by TEV (UniProt Q9ULZ3 1-106, S106C, Alexa Fluor 568 on the engineered C-terminal Cys (maleimide); Alexa Fluor 488 instead in the experiment with mCherry-NLRP6^PYD).
T1 construct: Apoptosis-associated speck-like protein containing a CARD (ASC), Pyrin domain, M1-Q105 followed by an engineered Cys (S106C); also called labeled MBP-ASC^PYD (before cleavage); source: E. coli BL21(DE3), purified (Ni-NTA, SEC) as monomeric MBP fusion, labelled, MBP removed by TEV in the assay
Briefly: fluorescence polarisation; apparent; Alexa568-labelled MBP-ASC PYD, polymerisation started by TEV removal of MBP; initial rates of ASC PYD filament formation plotted against concentrations of added GFP-AIM2 PYD seeds. Particulars: both partners purified.

Chain of ASC PYD (M1-Q105, S106C), fluorophore-labelled, MBP removed by TEV (UniProt Q9ULZ3) (Q9ULZ3 1-106 S106C): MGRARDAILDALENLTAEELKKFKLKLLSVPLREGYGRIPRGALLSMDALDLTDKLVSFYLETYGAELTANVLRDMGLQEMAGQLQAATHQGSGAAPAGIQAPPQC
T1 sequence (Q9ULZ3 1-106 S106C): as above

With “mCherry-tagged NLRP6 PYD (domain or fragment)”, the Kd in series [1] worked out at 90 nM.

B1: His-GFP-tagged AIM2 PYD (M1-P100) (domain or fragment, human, UniProt O14862 1-100, looked up)
chain: MESKYKEILLLTGLDNITDEELDRFKFFLSDEFNIATGKLHTANRIQVATLMIQNAGAVSAVMKTIRIFQKLNYMLLAKRLQEEKEKVDKQYKSVTKPKP
notes: Absent in melanoma 2 (AIM2), human, Pyrin domain, residues M1-P100; Non-cleavable His-GFP tag from a pET28a backbone; A two-residue linker from the BamHI site joins GFP and AIM2 PYD; The protein forms filaments; also called GFP-AIM2^PYD; His-GFP-AIM2^PYD; source: E. coli BL21(DE3), purified (Ni-NTA, SEC; void fractions); not shown: His, N-terminal, kept; GFP (monomeric, M1-T230, A206K), …
For the molecule B1, the binding result in series [2] is on record as “binds”. Besides, in series [3], the Kd is around 210 nM.

Values taken from PMC4646227, “Plasticity in PYD assembly revealed by cryo-EM structure of the PYD filament of AIM2” (Cell Discovery, 2015).
